The values that follow come from US20250171562A1 (ALK ABELL, published 2025).

The chains are these.
B1: CIgG4E4A1(G4S)2 (Fc fusion)
chain 1: GPPCPPCPAPEFLGGPSVFLFPPKPKDTLMISRTPEVTCVVVDVSQEDPEVQFNWYVDGVEVHNAKTKPREEQFNSTYRVVSVLTVLHQDWLNGKEYKCKVSNKGLPSSIEKTISKAKGQPREPQVYTLPPCQEEMTKNQVSLWCLVKGFYPSDIAVEWESNGQPENNYKTTPPVLDSDGSFFLYSRLTVDKSRWQEGNVFSCSVMHEALHNHYTQKSLSLSLGKGGGGSGGGGSDVQLQESGGGLVQPGGSLRLSCAASGFRFSNYAMRWYRQAPGKEREFVARISSTGFITRYTASVRDRFTISRDNDKNMMYLQLNKLTPQDTAHYYCNAESTDYWGQGTQVTVS
chain 2: GPPCPPCPAPEFLGGPSVFLFPPKPKDTLMISRTPEVTCVVVDVSQEDPEVQFNWYVDGVEVHNAKTKPREEQFNSTYRVVSVLTVLHQDWLNGKEYKCKVSNKGLPSSIEKTISKAKGQPREPQVCTLPPSQEEMTKNQVSLSCAVKGFYPSDIAVEWESNGQPENNYKTTPPVLDSDGSFFLVSRLTVDKSRWQEGNVFSCSVMHEALHNHYTQKSLSLSLGKGGGGSGGGGSEVQLLESGGGLVQPGGSLRLSCAASGFTFGNYDMAWVRQAPGKRPEWVSSIDTGGDITHYADSVKGRFTISRDNAKNTLYLQMNSLRPEDTAVYWCATDEEYALGPNEFDYYGQGTLVTVSS
B2: CIgG4F1A1(G4S)2 (Fc fusion)
chain 1: GPPCPPCPAPEFLGGPSVFLFPPKPKDTLMISRTPEVTCVVVDVSQEDPEVQFNWYVDGVEVHNAKTKPREEQFNSTYRVVSVLTVLHQDWLNGKEYKCKVSNKGLPSSIEKTISKAKGQPREPQVYTLPPCQEEMTKNQVSLWCLVKGFYPSDIAVEWESNGQPENNYKTTPPVLDSDGSFFLYSRLTVDKSRWQEGNVFSCSVMHEALHNHYTQKSLSLSLGKGGGGSGGGGSDVQLQESGGGLVQAGGSLKLSCAASGGSLSRYDMGWFRQAPGKEREFVARISWSGTTKYYADAVKGRFAISRDNAKNTVYLQMNSLKPEDTAVYYCAAAFYGNRGYYDVNAYTSSGQGTQVTVS
chain 2: B1 chain 2
B3: CIgG4E4A1(G4S)1 (Fc fusion)
chain 1: GPPCPPCPAPEFLGGPSVFLFPPKPKDTLMISRTPEVTCVVVDVSQEDPEVQFNWYVDGVEVHNAKTKPREEQFNSTYRVVSVLTVLHQDWLNGKEYKCKVSNKGLPSSIEKTISKAKGQPREPQVYTLPPCQEEMTKNQVSLWCLVKGFYPSDIAVEWESNGQPENNYKTTPPVLDSDGSFFLYSRLTVDKSRWQEGNVFSCSVMHEALHNHYTQKSLSLSLGKGGGGSDVQLQESGGGLVQPGGSLRLSCAASGFRFSNYAMRWYRQAPGKEREFVARISSTGFITRYTASVRDRFTISRDNDKNMMYLQLNKLTPQDTAHYYCNAESTDYWGQGTQVTVS
chain 2: GPPCPPCPAPEFLGGPSVFLFPPKPKDTLMISRTPEVTCVVVDVSQEDPEVQFNWYVDGVEVHNAKTKPREEQFNSTYRVVSVLTVLHQDWLNGKEYKCKVSNKGLPSSIEKTISKAKGQPREPQVCTLPPSQEEMTKNQVSLSCAVKGFYPSDIAVEWESNGQPENNYKTTPPVLDSDGSFFLVSRLTVDKSRWQEGNVFSCSVMHEALHNHYTQKSLSLSLGKGGGGSEVQLLESGGGLVQPGGSLRLSCAASGFTFGNYDMAWVRQAPGKRPEWVSSIDTGGDITHYADSVKGRFTISRDNAKNTLYLQMNSLRPEDTAVYWCATDEEYALGPNEFDYYGQGTLVTVSS
B4: CIgG4F1A1(G4S)1 (Fc fusion)
chain 1: GPPCPPCPAPEFLGGPSVFLFPPKPKDTLMISRTPEVTCVVVDVSQEDPEVQFNWYVDGVEVHNAKTKPREEQFNSTYRVVSVLTVLHQDWLNGKEYKCKVSNKGLPSSIEKTISKAKGQPREPQVYTLPPCQEEMTKNQVSLWCLVKGFYPSDIAVEWESNGQPENNYKTTPPVLDSDGSFFLYSRLTVDKSRWQEGNVFSCSVMHEALHNHYTQKSLSLSLGKGGGGSDVQLQESGGGLVQAGGSLKLSCAASGGSLSRYDMGWFRQAPGKEREFVARISWSGTTKYYADAVKGRFAISRDNAKNTVYLQMNSLKPEDTAVYYCAAAFYGNRGYYDVNAYTSSGQGTQVTVS
chain 2: B3 chain 2
B5: CIgG4E4A1(RS) (Fc fusion)
chain 1: GPPCPPCPAPEFLGGPSVFLFPPKPKDTLMISRTPEVTCVVVDVSQEDPEVQFNWYVDGVEVHNAKTKPREEQFNSTYRVVSVLTVLHQDWLNGKEYKCKVSNKGLPSSIEKTISKAKGQPREPQVYTLPPCQEEMTKNQVSLWCLVKGFYPSDIAVEWESNGQPENNYKTTPPVLDSDGSFFLYSRLTVDKSRWQEGNVFSCSVMHEALHNHYTQKSLSLSLGKRSDVQLQESGGGLVQPGGSLRLSCAASGFRFSNYAMRWYRQAPGKEREFVARISSTGFITRYTASVRDRFTISRDNDKNMMYLQLNKLTPQDTAHYYCNAESTDYWGQGTQVTVS
chain 2: GPPCPPCPAPEFLGGPSVFLFPPKPKDTLMISRTPEVTCVVVDVSQEDPEVQFNWYVDGVEVHNAKTKPREEQFNSTYRVVSVLTVLHQDWLNGKEYKCKVSNKGLPSSIEKTISKAKGQPREPQVCTLPPSQEEMTKNQVSLSCAVKGFYPSDIAVEWESNGQPENNYKTTPPVLDSDGSFFLVSRLTVDKSRWQEGNVFSCSVMHEALHNHYTQKSLSLSLGKRSEVQLLESGGGLVQPGGSLRLSCAASGFTFGNYDMAWVRQAPGKRPEWVSSIDTGGDITHYADSVKGRFTISRDNAKNTLYLQMNSLRPEDTAVYWCATDEEYALGPNEFDYYGQGTLVTVSS
B6: CIgG4F1A1(RS) (Fc fusion)
chain 1: GPPCPPCPAPEFLGGPSVFLFPPKPKDTLMISRTPEVTCVVVDVSQEDPEVQFNWYVDGVEVHNAKTKPREEQFNSTYRVVSVLTVLHQDWLNGKEYKCKVSNKGLPSSIEKTISKAKGQPREPQVYTLPPCQEEMTKNQVSLWCLVKGFYPSDIAVEWESNGQPENNYKTTPPVLDSDGSFFLYSRLTVDKSRWQEGNVFSCSVMHEALHNHYTQKSLSLSLGKRSDVQLQESGGGLVQAGGSLKLSCAASGGSLSRYDMGWFRQAPGKEREFVARISWSGTTKYYADAVKGRFAISRDNAKNTVYLQMNSLKPEDTAVYYCAAAFYGNRGYYDVNAYTSSGQGTQVTVS
chain 2: B5 chain 2
B7: CIgG4E3A1(G4S)3 (Fc fusion)
chain 1: GPPCPPCPAPEFLGGPSVFLFPPKPKDTLMISRTPEVTCVVVDVSQEDPEVQFNWYVDGVEVHNAKTKPREEQFNSTYRVVSVLTVLHQDWLNGKEYKCKVSNKGLPSSIEKTISKAKGQPREPQVYTLPPCQEEMTKNQVSLWCLVKGFYPSDIAVEWESNGQPENNYKTTPPVLDSDGSFFLYSRLTVDKSRWQEGNVFSCSVMHEALHNHYTQKSLSLSLGKGGGGSGGGGSGGGGSDVQLQESGGGLVQAGGSLRLACAASGRTLSSYVVSWFRQAPGKERKFVAAITWSGLSTTYLDSVQGRFTISRDNTKDTVYLQMNSLKPQDTAIYYCAAGPNIPSILRTRESEYAYWGQGTQVTVS
chain 2: GPPCPPCPAPEFLGGPSVFLFPPKPKDTLMISRTPEVTCVVVDVSQEDPEVQFNWYVDGVEVHNAKTKPREEQFNSTYRVVSVLTVLHQDWLNGKEYKCKVSNKGLPSSIEKTISKAKGQPREPQVCTLPPSQEEMTKNQVSLSCAVKGFYPSDIAVEWESNGQPENNYKTTPPVLDSDGSFFLVSRLTVDKSRWQEGNVFSCSVMHEALHNHYTQKSLSLSLGKGGGGSGGGGSGGGGSEVQLLESGGGLVQPGGSLRLSCAASGFTFGNYDMAWVRQAPGKRPEWVSSIDTGGDITHYADSVKGRFTISRDNAKNTLYLQMNSLRPEDTAVYWCATDEEYALGPNEFDYYGQGTLVTVSS
B8: CIgG4E4A1(G4S)3 (Fc fusion)
chain 1: GPPCPPCPAPEFLGGPSVFLFPPKPKDTLMISRTPEVTCVVVDVSQEDPEVQFNWYVDGVEVHNAKTKPREEQFNSTYRVVSVLTVLHQDWLNGKEYKCKVSNKGLPSSIEKTISKAKGQPREPQVYTLPPCQEEMTKNQVSLWCLVKGFYPSDIAVEWESNGQPENNYKTTPPVLDSDGSFFLYSRLTVDKSRWQEGNVFSCSVMHEALHNHYTQKSLSLSLGKGGGGSGGGGSGGGGSDVQLQESGGGLVQPGGSLRLSCAASGFRFSNYAMRWYRQAPGKEREFVARISSTGFITRYTASVRDRFTISRDNDKNMMYLQLNKLTPQDTAHYYCNAESTDYWGQGTQVTVS
chain 2: B7 chain 2

T1 sequence (P01854 other isoform, or with tags, fused parts or gaps): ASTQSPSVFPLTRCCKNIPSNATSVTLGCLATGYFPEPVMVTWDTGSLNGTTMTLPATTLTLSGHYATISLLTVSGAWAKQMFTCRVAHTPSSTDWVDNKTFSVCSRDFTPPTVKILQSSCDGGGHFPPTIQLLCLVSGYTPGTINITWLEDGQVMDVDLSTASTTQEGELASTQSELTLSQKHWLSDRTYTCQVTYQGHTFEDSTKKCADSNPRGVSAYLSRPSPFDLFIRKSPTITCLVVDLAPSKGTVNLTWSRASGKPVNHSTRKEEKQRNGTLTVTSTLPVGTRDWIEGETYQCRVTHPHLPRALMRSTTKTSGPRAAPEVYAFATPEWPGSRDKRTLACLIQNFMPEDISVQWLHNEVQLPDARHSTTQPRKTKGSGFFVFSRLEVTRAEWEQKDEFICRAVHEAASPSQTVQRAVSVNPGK

The assay has as its target T1, recombinant human IgE (human, UniProt P01854-1 1-428).
T1 construct: made in-house (ALK); preloaded on immobilised FcεRIα in the displacement ELISA
Kind of assay: IgE-FcεRIα displacement ELISA. In short, it runs like this:
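Streptavidin-coated plates carried site-specifically biotinylated recombinant human FcεRIα, loaded with recombinant human IgE at 13 ng/ml. sdAbs in a pM–μM series were added for 1 h, and displaced IgE was washed off. Percent displacement was the signal reduction versus the no-sdAb control, giving EC50 and maximal effect.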
For B1, the EC50 turned out to be 48 nM and the Max effect was 90%.
For B2, the EC50 amounted to 800 nM and the Max effect came to 55%.
In the case of B3, the EC50 turned out to be 130 nM and the Max effect stood at 85%.
Take B4: the Max effect is 30%.
With B5, the Max effect was 40%.
As for B6, the Max effect was 0%.
B7: the EC50 was determined as 36 nM and the Max effect was 90%.
For the molecule B8, the EC50 is 22 nM and the Max effect is 95%.

What is called EC50 is the concentration that produces a half-maximal response.
